The values below come from patent US20260242430A1, “NOVEL FUNGAL DERIVED COMPOUNDS” (Aalborg Universitet, priority 2023, published 2026).

In experiment [1] the test system is Apiosporin from a lysate of Apiospora arundinis (Isolate AAU773). Put plainly: Octet measurement of sdAbs capturing Apiosporin from fungal lysate. It counts as binding. As for the experimental part: The Aim was to establish that selected antibody fragments could capture their target antigen Apiosporin from a lysate of WT Apiospora arundinis (Isolate AAU773), whereas no antigen would be bound specifically to the antibody fragments when KO Apiospora arundinis were applied in the binding assay.
The sdAbs produced as in example 9 were applied to amine reactive biosensors from Sartorius for the Octet instrument. First the reagents were prepared according to the AR2G kit instructions. For a standard immobilization scouting assay 200 μL/well of water was added to column 1 of a 96-well plate. The 200 μL/well 1 M ethanolamine pH 8.5 were added to column 4. 200 μL/well assay running buffer into column 5. Here the provided Kinetics Buffer (dilute the 10× Kinetics Buffer 10-fold in PBS) was used. 200 μL/well of the sdAbs were added to column 6 at a concentration of 500 nM. The sdAbs were prepared to be immobilized. Protein was prepared in each of the 10 mM acetate buffers at pH 4, 5 and 6. A starting ligand concentration of at least 20 μg/mL is recommended. The ligand concentration may be decreased as low as 5 μg/mL if the immobilization time is extended; some performance loss is expected at lower ligand concentrations. Prepare 500 μL at each pH.
As Apiosporin is present in an unknown concentration in the crude extracts, it is not possible to estimate a Kd from the sensorgram. Also, it is not possible to fit the raw data to a nice binding curve when a ligand concentration is not known. However, in order to allow fitting a concentration of 100 nM and 10 nM (resulting in almost identical fitting curves) of Apiosporin were inserted. The same fitting settings were used for all (data correction aligning to the association step with baseline correction to dissociation, Savitzky-Golay filtering to smoothen the curves, 1:1 model graph fitting to association and dissociation separately). […] It thus establishes that there is a normal association/dissociation between Apiosporin and sdAbs for the WT, but no association/dissociation for the KO as expected. Thus, it is seen that the antibodies are specific against the compound produced from the NRPS.

The next experiment has as its system Apiosporin. The experiment is described as follows: Immunoprecipitation of Apiosporin from fungal extract by sdAbs with mass spec identification. Type of experiment: binding, Apiospora arundinis. Conditions: Protein A SpinTrap. As for the experimental part:
50 μl of the partial pure sdAbs prepared in example 9 and 150 μl fungal extract (resuspended in PBS with 500 mM NaCl and 0.2% Tween20) were incubated overnight at 4° C. The mixed sdAb and fungal extract were purified on a SpinTrap Protein A from Cytivia accoridng to manufactures instructions except that the elution was performed into 50% AcN 5% formic acid.
The same immune precipitations were analysed by HPLC-DAD-HRMS using a Hitachi Elite LaChrom HPLC system, equipped with a phenyl-hexyl 100 Å (150×4.6 mm Kinetex 5 μm, Phenomenex) column kept at 40° C. and coupled by a 5:95 flow splitter to a high-resolution mass spectrometer (compact qTOF, Bruker) with an electrospray source (Capilary: 4500 V; end plate offset 500 V; Dry gas 4.0 L/min, 200° C.) operated in positive mode. The injection volume was set to 30 μL and separated using a 1.2 mL/min gradient initiating at 10% solvent A (acetonitrile (HiPerSolv CHROMANORM, VWR) with 0.1% v/v formic acid (MS-grade 98%, Sigma-Aldrich)) in 90% solvent B (water (HiPerSolv CHROMANORM, VWR) with 0.1% v/v formic acid (MS-grade 98%, Sigma-Aldrich)), increasing linearly to 100% solvent A over 17 minutes and held for 6 minutes. After 0.5 minutes from sample injection, 2 μL calibrant (10 mM NaOH and 26 mM formic acid (MS-grade 98%, Sigma-Aldrich) in 1:1 water (HiPerSolv CHROMANORM, VWR): isopropanol) was injected directly to the mass analyser and used for internal spectra calibration. Mass spectrometric instrument control, data recording and data processing was performed using Compass DataAnalysis 4.2 SR2 (Bruker).

Experiment [2] relates to Apiospora arundinis (Isolate AAU773). The experiment is described as follows: Immunofluorescent staining of Apiospora arundinis with sdAbs. It counts as cell-based. Particulars: primary sdAb 70 nM, ALFA tag secondary (Alexa 647). As for the experimental part: Apiospora arundinis (Isolate AAU773) were grown in liquid culture and spotted on glass cover slips where they were immobilized using tape. The fungi were fixed by addition of 3.7% paraformaldehyde for 10 min. Then blocking with 5% skim milk in PBS before staining with the primary sdAbs (70 nM) overnight, secondary antibody (ALFA sdAb-FluoTag-X2 from Synaptic Systems, the antibody was labelled with Alexa flour 647 and used at a dilution of 1:500 for 3 h, washing 3×5 min with PBS, then staining for 2 min with calcofluor white stain (calcofluor white 1 g/l, evans blue 0.5 g/l), then wash 1×5 min with PBS.

The mark [3] stands for this setting: WT fungal extract, 1:1 model fit, Apiosporin concentration assumed 100 nM.

B1: AP2: single domain antibody (sdAb) selected against Apiosporin, SEQ ID NO: 11 (protein)
VHH: EVQLLESGGGLVQPGGSLRLSCAASGFRDSDEDMGWVRQAPGKGLEWVSSIETPDGSTYYADSVKGRFTISRDNSKNTLYLQMNSLRAEDTAVYYCASQPVYSYHFDYWGQGTLVTVSSAAA
As for B1, the “Association/dissociation (binding to ligand) on Octet” value (from here on “Association/dissociation”) was “absent in the KO” in experiment [1] (KO fungal extract) and “binding to a ligand present in the WT extracts” in experiment [1] (setting [3]). Also, the “Immunoprecipitation of Apiosporin, identified by mass spec” value (“Immunoprecipitation of Apiosporin” for short) in the experiment on Apiosporin was “identification of Apiosporin after immunoprecipitation”.

B2: AP7: single domain antibody (sdAb) selected against Apiosporin, SEQ ID NO: 31 (protein)
VHH: EVQLLESGGGLVQPGGSLRLSCAASGFRDSDEDMGWVRQAPGKGLEWVSSIEGPSGSTYYADSVKGRFTISRDNSKNTLYLQMNSLRAEDTAVYYCASVTWWTHPFDYWGQGTLVTVSSAAA
Consider B2, for which the “Immunoprecipitation of Apiosporin” value in the experiment on Apiosporin is given as “identification of Apiosporin after immunoprecipitation”.

B3: AP1: single domain antibody (sdAb) selected against Apiosporin, SEQ ID NO: 6 (protein)
VHH: EVQLLESGGGLVQPGGSLRLSCAASGFRDSDEDMGWVRQAPGKGLEWVSSIYSYNGSTYYADSVKGRFTISRDNSKNTLYLQMNSLRAEDTAVYYCASDRGGYNSFDYWGQGTLVTVSSAAA
For B3, the entries for the “Association/dissociation” value in experiment [1] (KO fungal extract) and in experiment [1] (setting [3]) were “absent in the KO” and “binding to a ligand present in the WT extracts”, respectively. The “Immunoprecipitation of Apiosporin” value in the experiment on Apiosporin is reported as “identification of Apiosporin after immunoprecipitation”. The figures for the “Immunofluorescent staining of septa” value in experiment [2] (KO fungi) and in experiment [2] (WT fungi) were “No clearly staining in septa” and “Staining is clearly shown in septa between two hyphae”, respectively.

B4: AP4: single domain antibody (sdAb) selected against Apiosporin, SEQ ID NO: 21 (protein)
VHH: EVQLLESGGGLVQPGGSLRLSCAASGFRDSDEDMGWVRQAPGKGLEWVSSIDAEDGSTYYADSVKGRFTISRDNSKNTLYLQMNSLRAEDTAVYYCASDSGDWFSFDYWGQGTLVTVSSAAA
As for B4, the entries for the “Association/dissociation” value in experiment [1] (KO fungal extract) and in experiment [1] (setting [3]) were “absent in the KO” and “binding to a ligand present in the WT extracts”, respectively.

B5: AP3: single domain antibody (sdAb) selected against Apiosporin, SEQ ID NO: 16 (protein)
VHH: EVQLLESGGGLVQPGGSLRLSCAASGFRDSDEDMGWVRQAPGKGLEWVSSIGGYNGSTYYADSVKGRFTISRDNSKNTLYLQMNSLRAEDTAVYYCASEGYYTSAFDYWGQGTLVTVSSAAA
On to B5, for which the “Association/dissociation” value in experiment [1] (KO fungal extract) was “absent in the KO”; in experiment [1] (setting [3]), “binding to a ligand present in the WT extracts”.
